B1: β-catenin: NL1F DS aptamers (protein)
parent chain: MATQADLMELDMAMEPDRKAAVSHWQQQSYLDSGIHSGATTTAPSLSGKGNPEEEDVDTSQVLYEWEQGFSQSFTQEQVADIDGQYAMTRAQRVRAAMFPETLDEGMQIPSTQFDAAHPTNVQRLAEPSQMLKHAVVNLINYQDDAELATRAIPELTKLLNDEDQVVVNKAAVMVHQLSKKEASRHAIMRSPQMVSAIVRTMQNTNDVETARCTAGTLHNLSHHREGLLAIFKSGGIPALVKMLGSPVDSVLFYAITTLHNLLLHQEGAKMAVRLAGGLQKMVALLNKTNVKFLAITTDCLQILAYGNQESKLIILASGGPQALVNIMRTYTYEKLLWTTSRVLKVLSVCSSNKPAIVEAGGMQALGLHLTDPSQRLVQNCLWTLRNLSDAATKQEGMEGLLGTLVQLLGSDDINVVTCAAGILSNLTCNNYKNKMMVCQVGGIEALVRTVLRAGDREDITEPAICALRHLTSRHQEAEMAQNAVRLHYGLPVVVKLLHPPSHWPLIKATVGLIRNLALCPANHAPLREQGAIPRLVQLLVRAHQDTQRRTSMGGTQQQFVEGVRMEEIVEGCTGALHILARDVHNRIVIRGLNTIPLFVQLLYSPIENIQRVAAGVLCELAQDKEAAEAIEAEGATAPLTELLHSRNEGVATYAAAVLFRMSEDKPQDYKKRLSVELTSSLFRTEPMAWNETADLGLDIGAQGEPLGYRQDDPSYRSFHSGGYGQDALGMDPMMEHEMGGHHPGADYPVDGLPDLGHAQDLMDGLPPGDSNQLAWFDTDL
B2: β-catenin: NL8F100 (protein)
parent chain: B1 parent chain
B3: β-catenin: NL1F30 (protein)
parent chain: B1 parent chain
B4: β-catenin: 3JB8F+12 (protein)
parent chain: B1 parent chain

Tests used:
[1] = WB abundance of GFP-β-catenin; conditions: glycan gained; control: GFP-β-catenin + individual aptamers T1 · AP3
[2] = WB abundance of endogenous β-catenin; conditions: glycan gained; control: individual aptamers T1 · bc339
[3] = WB phospho-specific antibody; conditions: glycan gained; control: GFP-β-catenin + individual aptamers T1 · AP3

Protein | expression_or_secretion [2] | also measured
B1 | – | expression_or_secretion [1]: increases
B2 | increases | –
B3 | – | other: Ser675 phosphorylation [3]: increases
B4 | increases | –
